The assay concerns the target sACE2_(2).S01-IgG1 (human) (UniProt Q9BYF1). Kind of assay: BLI.

One may read the Kd as the concentration at which binding is half-saturated. A low value points to tighter binding. “Delta-RBD (from UniProt P0DTC2) (domain or fragment)” displayed a Kd of 1 nM.
